Experiments:
[1] = substrate: O=C(O)CCC(=O)C(=O)O; assay: MALDI-MS peptide hydroxylation assay, steady-state kinetics; type: biochemical, Rhodothermus marinus; conditions: co-substrates uL16RM peptide fragment and O2, Fe(II), ascorbate, 50 mM HEPES pH 7.5, 37 °C
[2] = substrate: O=C(O)CCC(=O)C(=O)O; assay: as above; type: biochemical, Escherichia coli; conditions: co-substrates uL16 peptide fragment and O2; Fe(II), ascorbate; temperature and pH for this row not explicitly stated in main text

B1: ycfDRM (Rhodothermus marinus DSM 4252) (protein)
chain: MQLPETILGGLAPEEFLANYWQKRPLLIRQALPGFRSPITPEELAGLACEEGVTARLILEKGGAYPWEVRYGPFEPEDFVALPPTHWTLLVQEVDRLVPEVAALLETVRFVPNWRLDDIMVSYAPEGGTVGAHIDNYDVFLVQAWGRRRWQINHRPVEREELVPGLEVRLLAHFEPDAEWILEPGDVLYLPPRIPHYGVALEDCMTFSIGFRAPDQAELAEAMPRMAAWLDGGRRYADPDLTPADEPGEITPEALDQIQALLRALIDDRERLARWFGCIITEPRRGLPPEPPGRPLSAKQLHRRLQQGATLRRNAIPELAYVRHADGSATLFASGEAYELSPELADVAPLLTGRRPLTAETLRPWLERDDFLELLQTLIHSGILSLIPARKR
notes: pET28a NdeI/SacI, expressed in E. coli BL21(DE3); HisTrap and Superdex 75 purified
Protein B1 has a Km [1] of 71.1 ± 12.2 µM.

B2: ycfDEC (Escherichia coli K-12) (protein)
chain: MEYQLTLNWPDFLERHWQKRPVVLKRGFNNFIDPISPDELAGLAMESEVDSRLVSHQDGKWQVSHGPFESYDHLGETNWSLLVQAVNHWHEPTAALMRPFRELPDWRIDDLMISFSVPGGGVGPHLDQYDVFIIQGTGRRRWRVGEKLQMKQHCPHPDLLQVDPFEAIIDEELEPGDILYIPPGFPHEGYALENAMNYSVGFRAPNTRELISGFADYVLQRELGGNYYSDPDVPPRAHPADVLPQEMDKLREMMLELINQPEHFKQWFGEFISQSRHELDIAPPEPPYQPDEIYDALKQGEVLVRLGGLRVLRIGDDVYANGEKIDSPHRPALDALASNIALTAENFGDALEDPSFLAMLAALVNSGYWFFEG
notes: purified E. coli YcfD; construct not described in main text
In the case of B2, the Km [2] is reported as 8.6 ± 3.4 µM.
